Patent publication US20200190209A1 (BLACK BELT THERAPEUTICS, published 2020)
Several values for one entry are separate records, joined by “and”; a condition that tells them apart may be missing. Equal values may be shown once. Read-outs that look alike come from different tables or passages of the source.

Assays:
[1] = target: T1, recombinant human CD38 his tagged (extracellular domain) (human, UniProt P28907 43-300); assay: SPR Biacore 2000; IgG1 captured, rhCD38-his as analyte
T1 construct: also called rhCD38; rhCD38-his; not shown: Histidine tag

[2] = target: T2, human CD38 (full length, on cells) (human, UniProt P28907 1-300); assay: cell-based or functional assay
[3] = target: T1, recombinant human CD38 his tagged …; assay: Octet BLI, affinity, monovalent human CD38-HIS; IgG1
[4] = target: T1, recombinant human CD38 his tagged …; assay: Octet BLI, avidity; rhCD38-his on Ni-NTA sensor, IgG1 in solution
Description: Avidity binding measurements of anti-CD38 Antibodies: Ni-NTA sensors were equilibrated off-line in assay buffer for 30 minutes and then monitored on-line for 60 seconds for baseline establishment. […] Then the antibody was associated at different concentrations (as described in FIGS. 25 and 30) for 30-50 minutes. Afterwards they were transferred to assay buffer for 20-30 min for off-rate measurement. Kinetics data were fit using a 1:1 binding model in the data analysis software provided by ForteBio.

[5] = target: T1, recombinant human CD38 his tagged …; assay: summary, human CD38 extracellular protein
[6] = target: T1, recombinant human CD38 his tagged …; assay: Octet BLI, affinity, monovalent human CD38-HIS; IgG4
[7] = target: T2, human CD38 (full length, on cells); assay: flow cytometry titration on human cells, gated on CD4-positive cells
Description: (§1) Unbound primary antibody was removed by washing followed by staining with a secondary antibody (5 μg/ml) 30 minutes on ice. All samples were stained in triplicates with appropriate CD3, CD4 and CD8 cross-reactive antibodies. Samples were measured by flow cytometry. For data analysis live cells were gated using FSC vs SSC parameters during sample acquisition. Mean fluorescence intensities (MFI) of stained cells were plotted on an XY chart, graphing MFI against the log of the concentration and the data fit to a non-linear regression curve from which the EC50 was calculated.

[8] = target: T2, human CD38 (full length, on cells); assay: flow cytometry titration on human cells, gated on CD8-positive cells
Description: as §1

[9] = target: T2, human CD38 (full length, on cells); assay: cell-based or functional assay; remark: listed apart in the source
[10] = target: T3, Cynomolgus monkey CD38 (on T cells) (Cynomolgus monkey, UniProt Q5VAN0 1-301); assay: flow cytometry titration on cynomolgus T cells, gated on CD4-positive and on CD8-positive cells
T3 construct: whole, on cells; also called cyno CD38
Description: as §1

[11] = target: T1, recombinant human CD38 his tagged …; assay: Octet BLI, affinity, monovalent human CD38-HIS; yeast produced
[12] = target: T1, recombinant human CD38 his tagged …; assay: SPR Biacore affinity, rhCD38-his
Description: (§2) Anti-human antibody was initially immobilised across all flow cells in analysis buffer (pH 7.4, 10mM HEPES, 150mM NaCl, 3mM EDTA, 0.05% Tween 20) to an RU of between 12,000-14,000 over 10 minutes. […] Dissociation was performed in analysis buffer over 10 minutes. Regeneration steps between sample concentrations were performed in 3M MgCl₂, three times for 0.5 minutes. A flow rate of 25 μl/min was maintained throughout the process. Kinetics data were fit using a global fit on the analysis software provided by Biacore with reference subtraction.

[13] = target: T2, human CD38 (full length, on cells); assay: flow cytometry titration on human PBMC, gated on CD4-positive cells
[14] = target: T3, Cynomolgus monkey CD38 (on T cells); assay: flow cytometry titration on cynomolgus T cells, gated on CD4-positive cells
[15] = target: T3, Cynomolgus monkey CD38 (on T cells); assay: flow cytometry titration on cynomolgus T cells, gated on CD8-positive cells
[16] = target: T2, human CD38 (full length, on cells); assay: cell-based or functional assay; remark: listed apart in the source
[17] = target: T2, human CD38 (full length, on cells); assay: flow cytometry, binding to Daudi cells
[18] = target: T1, recombinant human CD38 his tagged …; assay: Octet BLI affinity, rhCD38
[19] = target: T2, human CD38 (full length, on cells); assay: cell-based or functional assay; remark: listed apart in the source
[20] = target: T2, human CD38 (full length, on cells); assay: flow cytometry titration on human PBMC, gated on CD8-positive cells
[21] = target: T1, recombinant human CD38 his tagged …; assay: Octet BLI affinity, rhCD38; remark: listed apart in the source
[22] = target: T1, recombinant human CD38 his tagged …; assay: SPR Biacore affinity, rhCD38-his; remark: listed apart in the source
Description: as §2

[23] = target: T2, human CD38 (full length, on cells); assay: flow cytometry, binding to Daudi cells; remark: listed apart in the source
[24] = target: T2, human CD38 (full length, on cells); assay: cell-based or functional assay; remark: listed apart in the source

T3 sequence (Q5VAN0 whole entry): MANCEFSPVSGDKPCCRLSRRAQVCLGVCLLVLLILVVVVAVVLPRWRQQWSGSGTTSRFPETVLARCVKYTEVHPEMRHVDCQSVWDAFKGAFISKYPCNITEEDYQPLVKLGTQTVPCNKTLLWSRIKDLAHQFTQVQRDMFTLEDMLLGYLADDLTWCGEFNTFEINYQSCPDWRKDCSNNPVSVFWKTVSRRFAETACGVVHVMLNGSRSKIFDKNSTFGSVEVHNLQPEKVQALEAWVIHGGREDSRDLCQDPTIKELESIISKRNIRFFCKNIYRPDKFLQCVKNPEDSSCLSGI

B1: aCD38-a-327 (human IgG1) (antibody, V domains shown)
VH: QVQLQESGPGLVKPSQTLSLTCTVSGGSISSGGYYWSWIRQHPGKGLEWIGYIYYSGSTYYNPSLKSRVTISVDTSKNQFSLKLSSVTAADTAVYYCARAKSELVLPYYYYMDVWGKGTTVTVSS
VL: not shown
notes: Human IgG1
- Kd [1]: 1 nM
- ADCC EC50, Daudi target cells [2]: 0.03 µg/mL
- ADCC max. lysis, Daudi target cells [2]: 55%
- Kd [3]: 2.3 nM
- Kd [4]: 0.0181 nM
- Kd [5]: ~1 nM

B2: aCD38-a-327 (IgG4) (antibody, V domains shown)
VH: QVQLQESGPGLVKPSQTLSLTCTVSGGSISSGGYYWSWIRQHPGKGLEWIGYIYYSGSTYYNPSLKSRVTISVDTSKNQFSLKLSSVTAADTAVYYCARAKSELVLPYYYYMDVWGKGTTVTVSS
VL: not shown
- Kd [6]: 2.99 nM

B3: aCD38-a-306 (human IgG1) (antibody, V domains shown)
VH: not shown
VL: DIQMTQSPSSLSASVGDRVTITCRASQSISSYLNWYQQKPGKAPKLLIYGASSLQSGVPSRFSGSGSGTDFTLTISSLQPEDFATYYCQQRSSTPITFGGGTKVEIK
notes: Human IgG1
- Kd [1]: 1.2 nM
- EC50 (read off the curve) [7]: ~0.4 µg/mL
- ADCC EC50, Daudi target cells [2]: 0.0013 µg/mL
- ADCC max. lysis, Daudi target cells [2]: 43%
- EC50 (read off the curve) [8]: ~0.2 µg/mL
- Kd [4]: 0.0735 nM
- CDC EC50, Daudi cells, 10% complement [9]: 0.19 µg/mL
- CDC max. lysis, Daudi cells, 10% complement [9]: 16.9%
- binding result [10]: no binding (tested: about 20 µg/ml (log 1.3))

B4: aCD38-a-306 (yeast produced) (antibody, V domains shown)
VH: not shown
VL: DIQMTQSPSSLSASVGDRVTITCRASQSISSYLNWYQQKPGKAPKLLIYGASSLQSGVPSRFSGSGSGTDFTLTISSLQPEDFATYYCQQRSSTPITFGGGTKVEIK
- Kd [11]: 48 nM

B5: aCD38-b-348 (human IgG1) (antibody, V domains shown)
VH: QLQLQESGPGLVKPSETLSLTCTVSGGSISSSDYYWGWIRQPPGKGLEWIGSIYYSGSTYYNPSLKSRVTISVDTSKNQFSLKLSSVTAADTAVYYCARGQYSSGWYAYPFDMWGQGTMVTVSS
VL: EIVLTQSPGTLSLSPGERATLSCRASQSVRSSYLAWYQQKPGQAPRLLIYGASSRATGIPDRFSGSGSGTDFTLTISRLEPEDFAVYYCQQDGNVYTFGGGTKVEIK
notes: Human IgG1
- Kd [1]: 2 nM
- Kd [12]: 2 nM
- EC50 (read off the curve) [13]: ~0.4 nM
- ADCC EC50, Daudi target cells [2]: 0.00032 µg/mL and 0.0008 µg/mL and 0.00042 µg/mL
- Kd [3]: 8.81 nM
- EC50 (read off the curve) [14]: ~0.7 µg/mL
- EC50 (read off the curve) [15]: ~0.8 µg/mL
- CDC EC50, Raji cells, 10% complement [16]: 0.3 µg/mL
- CDC EC50, Raji cells, 10% complement (repeat) [16]: 0.17 µg/mL
- Kd [4]: 0.177 nM
- EC50 [17]: 0.341 µg/mL
- Max MFI [17]: 2320 MFI
- CDC EC50, Daudi cells, 10% complement [9]: 0.17 µg/mL and 0.34 µg/mL and 0.26 µg/mL
- Kd [18]: 5.79 nM
- ADCC target lysis EC50 [19]: 0.0059 µg/mL
- ADCC target lysis, max. % lysis [19]: 44%
- EC50 (read off the curve) [20]: ~0.4 nM

B6: aCD38-b-348 (IgG4) (antibody, V domains shown)
VH: QLQLQESGPGLVKPSETLSLTCTVSGGSISSSDYYWGWIRQPPGKGLEWIGSIYYSGSTYYNPSLKSRVTISVDTSKNQFSLKLSSVTAADTAVYYCARGQYSSGWYAYPFDMWGQGTMVTVSS
VL: EIVLTQSPGTLSLSPGERATLSCRASQSVRSSYLAWYQQKPGQAPRLLIYGASSRATGIPDRFSGSGSGTDFTLTISRLEPEDFAVYYCQQDGNVYTFGGGTKVEIK
- Kd [6]: 9.24 nM

B7: aCD38-b-329-m6 (antibody, IgG1, V domains shown)
VH: QLQLQESGPGLVKPSETLSLTCTVSGGSISSSDYYWGWIRQPPGKGLEWIGSIYYSGSTYYNPSLKSRVTISVDTSKNQFSLKLSSVTAADTAVYYCARGQYSSGWYAYPFDMWGQGTMVTVSS
VL: EIVLTQSPGTLSLSPGERATLSCRASQSVRSSYLAWYQQKPGQAPRLLIYGASSRATGIPDRFSGSGSGTDFTLTISRLEPEDFAVYYCQQDEAVFTFGGGTKVEIK
- Kd [21]: 19.9 nM
- Kd [22]: 4.7 nM
- EC50 [23]: 0.651 µg/mL
- Max MFI [23]: 2300 MFI
- ADCC target lysis EC50 [24]: 0.0024 µg/mL
- ADCC target lysis, max. % lysis [24]: 47%

B8: aCD38-b-348-m4 (antibody, IgG1, V domains shown)
VH: QLQLQESGPGLVKPSETLSLTCTVSGGSISSSDYYWGWIRQPPGKGLEWIGSIYYSGSTYYNPSLKSRVTISVDTSKNQFSLKLSSVTAADTAVYYCARGQYSSGWYAYPFDMWGQGTMVTVSS
VL: EIVLTQSPGTLSLSPGERATLSCRASQSVRSSYLAWYQQKPGQAPRLLIYGASSRATGIPDRFSGSGSGTDFTLTISRLEPEDFAVYYCQQEGNVYTFGGGTKVEIK
- Kd [12]: 27 nM
- EC50 [17]: 0.299 µg/mL
- Max MFI [17]: 2020 MFI
- Kd [18]: 70.1 nM
- ADCC target lysis EC50 [19]: 0.0014 µg/mL
- ADCC target lysis, max. % lysis [19]: 38%

B9: aCD38-b-329-m7 (antibody, IgG1, V domains shown)
VH: QLQLQESGPGLVKPSETLSLTCTVSGGSISSSDYYWGWIRQPPGKGLEWIGSIYYSGSTYYNPSLKSRVTISVDTSKNQFSLKLSSVTAADTAVYYCARGQYSSGWYAYPFDMWGQGTMVTVSS
VL: EIVLTQSPGTLSLSPGERATLSCRASQSVRSSYLAWYQQKPGQAPRLLIYGASSRATGIPDRFSGSGSGTDFTLTISRLEPEDFAVYYCQQDSAVFTFGGGTKVEIK
- Kd [21]: 26 nM
- Kd [22]: 4.9 nM
- EC50 [23]: 0.745 µg/mL
- Max MFI [23]: 2210 MFI
- ADCC target lysis EC50 [24]: 0.0035 µg/mL
- ADCC target lysis, max. % lysis [24]: 43%

B10: aCD38-b-348-m1 (antibody, IgG1, V domains shown)
VH: QLQLQESGPGLVKPSETLSLTCTVSGGSISSSDYYWGWIRQPPGKGLEWIGSIYYSGSTYYNPSLKSRVTISVDTSKNQFSLKLSSVTAADTAVYYCARGQYSSGWYAYPFDMWGQGTMVTVSS
VL: EIVLTQSPGTLSLSPGERATLSCRASQSVRSSYLAWYQQKPGQAPRLLIYGASSRATGIPDRFSGSGSGTDFTLTISRLEPEDFAVYYCQQEANVYTFGGGTKVEIK
notes: also called aCD38-b-348-ml
- Kd [12]: 63 nM
- EC50 [17]: 0.485 µg/mL
- Max MFI [17]: 1610 MFI
- Kd [18]: 24.7 nM
- ADCC target lysis EC50 [19]: 0.0028 µg/mL
- ADCC target lysis, max. % lysis [19]: 38%

B11: aCD38-b-348-m2 (antibody, IgG1, V domains shown)
VH: QLQLQESGPGLVKPSETLSLTCTVSGGSISSSDYYWGWIRQPPGKGLEWIGSIYYSGSTYYNPSLKSRVTISVDTSKNQFSLKLSSVTAADTAVYYCARGQYSSGWYAYPFDMWGQGTMVTVSS
VL: EIVLTQSPGTLSLSPGERATLSCRASQSVRSSYLAWYQQKPGQAPRLLIYGASSRATGIPDRFSGSGSGTDFTLTISRLEPEDFAVYYCQQDSNVYTFGGGTKVEIK
- Kd [12]: 6.8 nM
- EC50 [17]: 0.499 µg/mL
- Max MFI [17]: 2220 MFI
- Kd [18]: 39.9 nM
- ADCC target lysis EC50 [19]: 0.0025 µg/mL
- ADCC target lysis, max. % lysis [19]: 44%

B12: aCD38-b-348-m3 (antibody, IgG1, V domains shown)
VH: QLQLQESGPGLVKPSETLSLTCTVSGGSISSSDYYWGWIRQPPGKGLEWIGSIYYSGSTYYNPSLKSRVTISVDTSKNQFSLKLSSVTAADTAVYYCARGQYSSGWYAYPFDMWGQGTMVTVSS
VL: EIVLTQSPGTLSLSPGERATLSCRASQSVRSSYLAWYQQKPGQAPRLLIYGASSRATGIPDRFSGSGSGTDFTLTISRLEPEDFAVYYCQQDANVYTFGGGTKVEIK
- Kd [12]: 28 nM
- EC50 [17]: 0.558 µg/mL
- Max MFI [17]: 2100 MFI
- Kd [18]: 55.1 nM
- ADCC target lysis EC50 [19]: 0.0043 µg/mL
- ADCC target lysis, max. % lysis [19]: 39%
